In PMC3977201:

Biological target: APOBEC3G labeled with EGFP (A3G-EGFP), wild type (human), Q9HC16
Assay: fluorescence fluctuation spectroscopy
Settings: remark: other sources report otherwise

B1: APOBEC3G labeled with EGFP (A3G-EGFP), wild type, Q9HC16 1-384 (natural protein)
chain: MKPHFRNTVERMYRDTFSYNFYNRPILSRRNTVWLCYEVKTKGPSRPPLDAKIFRGQVYSELKYHPEMRFFHWFSKWRKLHRDQEYEVTWYISWSPCTKCTRDMATFLAEDPKVTLTIFVARLYYFWDPDYQEALRSLCQKRDGPRATMKIMNYDEFQHCWSKFVYSQRELFEPWNNLPKYYILLHIMLGEILRHSMDPPTFTFNFNNEPWVRGRHETYLCYEVERMHNDTWVLLNQRRGFLCNQAPHKHGFLEGRHAELCFLDVIPFWKLDLDQDYRVTCFTSWSPCFSCAQEMAKFISKNKHVSLCIFTARIYDDQGRCQEGLRTLAEAGAKISIMTYSEFKHCWDTFVDHQGCPFQPWDGLDEHSQDLSGRLRAILQNQEN
For B1, the normalized brightness at 1 uM was 10.
